Laboratory results reported in the MegaScale stability set (Tsuboyama et al. 2023).

B1: r16_88_TrROS_Hall (parent)
chain: EVIELKIKFKTPEQREKLKEIAKKLNAEVVEEKDGEVIIRFKTPEQAERALKEAEKLGAEVEL

Variants of: B1
Experiment: folding stability dG (cDNA display proteolysis); higher = more stable
Conditions: PBS, room temperature

Variant | folding stability dG [kcal/mol]
EVIELKIKFKTPEQREKLKAIAKKLNAEVVEEKDGEVIIRFKTPEQAERALKEAEKLGAEVEL [E20A] | 4.37
EVIELKIKFKTPEQREKLKLIAKKLNAEVVEEKDGEVIIRFKTPEQAERALKEAEKLGAEVEL [E20L] | 4.87
EVIELKIKFKTPEQREKLKEIAKKLNAEVVEEKDGEVIIRFKTPEQAERALKEAEKLNAEVEL [G58N] | 4.25
EVIELKIKFKTPEQREKLKEIAKKLNAEVVEEKDGEVIIRFKTPEQAERALKEAEKLFAEVEL [G58F] | 4.24
EVIELKIKFKTPEQREKLKEIAKKLNTEVVEEKDGEVIIRFKTPEQAERALKEAEKLGAEVEL [A27T] | 4.26
EVIELKIKFKTPEQREKLKEIAKKLNVEVVEEKDGEVIIRFKTPEQAERALKEAEKLGAEVEL [A27V] | 4.24
EVIELKIKFKTPEQREKLKEIAKKLNREVVEEKDGEVIIRFKTPEQAERALKEAEKLGAEVEL [A27R] | 3.72
EVIELKIKFKTPEQREKLKEIAKKLNAEVVEEKDGEVDIRFKTPEQAERALKEAEKLGAEVEL [I38D] | 3.82
EVIELKIKFKTPEQREKLKEIAKKLNAEVVEEKDGEVIIRFKTPEQAEHALKEAEKLGAEVEL [R49H] | 4.4
EVIELKIKFKTPEQREKLKEIAKKLNAEVVEEKDGEVIMRFKTPEQAERALKEAEKLGAEVEL [I39M] | 4.65
EVIELKIKFKTPEQREKLKEIAKKLNAEVVEEKDGEVIIEFKTPEQAERALKEAEKLGAEVEL [R40E] | 3.93
EVIELKIKFKTPEQREKLKEIAKKLNAEVVEEKDGEVIIKFKTPEQAERALKEAEKLGAEVEL [R40K] | 4.27
EVIELKIKFKTPEQREKLKEIAKKLNAEVVEEKDGEVIICFKTPEQAERALKEAEKLGAEVEL [R40C] | 4.37
EVIELKIKFKTPEQREKLKEIAKKLNAEVVEEKDGEVIIYFKTPEQAERALKEAEKLGAEVEL [R40Y] | 4.86
EVIELKIKFKTPEQREKLKEIAKKLNAEVVEEKDGEVIIRFKTPEQAERALKEAEALGAEVEL [K56A] | 4.49
EVIELKIKFKTPEQREKLKEIAKKLNAEVVEEKDGEVIIRFKTPEQAERALKEAEHLGAEVEL [K56H] | 4.33
EVIELKIKFKTPEQREKLKEIYKKLNAEVVEEKDGEVIIRFKTPEQAERALKEAEKLGAEVEL [A22Y] | 4.74
EVIELKIKFKTPEIREKLKEIAKKLNAEVVEEKDGEVIIRFKTPEQAERALKEAEKLGAEVEL [Q14I] | 4.1
EVIELKIKFKTPEVREKLKEIAKKLNAEVVEEKDGEVIIRFKTPEQAERALKEAEKLGAEVEL [Q14V] | 4.38
EVIELKIKFKTPEDREKLKEIAKKLNAEVVEEKDGEVIIRFKTPEQAERALKEAEKLGAEVEL [Q14D] | 4.16
EVIELKIKFKTPEQREKLKEIAKKLNAEVVEEKRGEVIIRFKTPEQAERALKEAEKLGAEVEL [D34R] | 4.23
EVIELKIKFKTPEQREKLKEIAKKLNAEVVEEKCGEVIIRFKTPEQAERALKEAEKLGAEVEL [D34C] | 4.42

Variant | folding stability dG [kcal/mol]
EVIELKIKFKTPEQREKLKEIAKKLNAEVVEEKDGEVIIRFKTPEQWERALKEAEKLGAEVEL [A47W] | 4.78
EVIELKIKFKTPEQREKLKEIAKKLNAEVVEEKDGEVIIRFKTPEQNERALKEAEKLGAEVEL [A47N] | 3.68
EVIELKIKFKTPEQREKLKEIAKKLNAEVVEEKDGEVIIRFKTPEQYERALKEAEKLGAEVEL [A47Y] | 4.79
EVIELKIKFKTPEQREKLKEIAKKLNAEVVEEKDGEVIIRFKTPEQMERALKEAEKLGAEVEL [A47M] | 4.39
EVIELKIKFKTPEQREKLKEIAKKLNAEVVEEKDGEVIIRFKTPEQDERALKEAEKLGAEVEL [A47D] | 3.16
EVIELKIKFKTPEQREKLKEIAKKLNAEVVEEKDGEVIIRFKTPEQIERALKEAEKLGAEVEL [A47I] | 4.51
EVIELKIKFKTPEQREKLKEIAKKLNAEVVEEKDGEVIIRFKTPEQAERALKEAEKLGWEVEL [A59W] | 4.21
EVIELKIKFKTPEQREKLKEIAKKLNAEVVEEKDGEVIIRFKTPEQAERALKEAEKLGAEHEL [V61H] | 4.39
EVIELKIKFKTPEQREKLKEIAKKLNAEVVEEKDGEVIIRFKTPEQAERALKEAEKLGAEVCL [E62C] | 4.59
EVIELKIKFKTPEQREKLKEIAKKLNAEVVEEKDGEVIIRFKTPEQAERALKEAEKLGAEVFL [E62F] | 4.25
EVIELKIKFKTPEQREKLKEIAKKLNAEVVLEKDGEVIIRFKTPEQAERALKEAEKLGAEVEL [E31L] | 4.62
EVIELKIKFKTPEQREKLKEIAKKLNAEVVEEKDGEVIIRFKTFEQAERALKEAEKLGAEVEL [P44F] | 4.54
EVIELKIKFKTPEQREKLKEIAKKLNAEVVEEKDGEVIIRFKTAEQAERALKEAEKLGAEVEL [P44A] | 4.58
EVIVLKIKFKTPEQREKLKEIAKKLNAEVVEEKDGEVIIRFKTPEQAERALKEAEKLGAEVEL [E4V] | 4.58
EVIELKIKFKTPEQREKLKEIAKKLNAEVVEEKDGEVIIRFKTPEQAERALKEAYKLGAEVEL [E55Y] | 4.66
EVIELKIKFKTPEQREKLKEIAKKLNAEVVEEKDGEVIIRFKTPEQAERALKEATKLGAEVEL [E55T] | 4.31
EVIELTIKFKTPEQREKLKEIAKKLNAEVVEEKDGEVIIRFKTPEQAERALKEAEKLGAEVEL [K6T] | 4.34
EVIELWIKFKTPEQREKLKEIAKKLNAEVVEEKDGEVIIRFKTPEQAERALKEAEKLGAEVEL [K6W] | 4.94
EVIELIIKFKTPEQREKLKEIAKKLNAEVVEEKDGEVIIRFKTPEQAERALKEAEKLGAEVEL [K6I] | 4.47
EVIELKIKFKTPEQREKLKEIAKKLNAEVVEEKDGEVIIRFKTPEQAERACKEAEKLGAEVEL [L51C] | 4.41
EVIELKIKFKTPEQKEKLKEIAKKLNAEVVEEKDGEVIIRFKTPEQAERALKEAEKLGAEVEL [R15K] | 4.13
EVIELKIKFKTPEQPEKLKEIAKKLNAEVVEEKDGEVIIRFKTPEQAERALKEAEKLGAEVEL [R15P] | 3.44

Variant | folding stability dG [kcal/mol]
EVIELKIKFKTPEQHEKLKEIAKKLNAEVVEEKDGEVIIRFKTPEQAERALKEAEKLGAEVEL [R15H] | 4.27
EVIELKIKFKTPEQAEKLKEIAKKLNAEVVEEKDGEVIIRFKTPEQAERALKEAEKLGAEVEL [R15A] | 4.13
EVIELKIKFKTPEQREKLKEIAKKLNAEVVEEKDGEVIIRFKTPEQAERALKEREKLGAEVEL [A54R] | 3.4
EVIELKIKFKTPEQREKLKEIAKKLNAEVVEEKDGEVIIRFKTPEQAERALKEDEKLGAEVEL [A54D] | 2.86
EVIELKIKFKTPEQRNKLKEIAKKLNAEVVEEKDGEVIIRFKTPEQAERALKEAEKLGAEVEL [E16N] | 4.5
EVIELKIKFKTPEQRCKLKEIAKKLNAEVVEEKDGEVIIRFKTPEQAERALKEAEKLGAEVEL [E16C] | 4.51
EVIELKIKFKTPEQREKLKEIAKKLNAEVQEEKDGEVIIRFKTPEQAERALKEAEKLGAEVEL [V30Q] | 4.3
EVIELKIKFKTPEQREKLKEIAKKLNAEVVEEKDGEVIIRFKTPEQAERALKEAEKLGAEVEW [L63W] | 4.73
EVIELKIKFKTPEQREKLKEIAKKLNAEVVEEKDGEVIIRFKTPEQAERALKEAEKLGAEVEK [L63K] | 4.56
EVIELKIKFKTPEQREKLKEIAKKLPAEVVEEKDGEVIIRFKTPEQAERALKEAEKLGAEVEL [N26P] | 3.84
EVIELKIKFKTPEQREKLKEIAKKLNAEVVEEKDGEVIIRFVTPEQAERALKEAEKLGAEVEL [K42V] | 4.19
EVIELKIKFKTPEQREKLKEIAKKLNAEVVEEKDGEVIIRFMTPEQAERALKEAEKLGAEVEL [K42M] | 4.18
EVIEAKIKFKTPEQREKLKEIAKKLNAEVVEEKDGEVIIRFKTPEQAERALKEAEKLGAEVEL [L5A] | 4.37
EVIEIKIKFKTPEQREKLKEIAKKLNAEVVEEKDGEVIIRFKTPEQAERALKEAEKLGAEVEL [L5I] | 4.26
EVIELKIKFKTPEQREKLKEIAKLLNAEVVEEKDGEVIIRFKTPEQAERALKEAEKLGAEVEL [K24L] | 4.5
EVIELKIKFKTPEQREKLKEIAKRLNAEVVEEKDGEVIIRFKTPEQAERALKEAEKLGAEVEL [K24R] | 4.38
EVIELKIPFKTPEQREKLKEIAKKLNAEVVEEKDGEVIIRFKTPEQAERALKEAEKLGAEVEL [K8P] | 4.21
EVIELKIKFKTPEQREKLKEIANKLNAEVVEEKDGEVIIRFKTPEQAERALKEAEKLGAEVEL [K23N] | 4.34
EVIELKIKFKTPEQREKLKEIAMKLNAEVVEEKDGEVIIRFKTPEQAERALKEAEKLGAEVEL [K23M] | 4.54
EVIELKIKFKTPEQREKLKEIAAKLNAEVVEEKDGEVIIRFKTPEQAERALKEAEKLGAEVEL [K23A] | 4.21
EVIELKIKFKTPEQREKLKEIAKKLNAEVVEEKDGDVIIRFKTPEQAERALKEAEKLGAEVEL [E36D] | 4.49
EVIELKIKFKTPEQREKLAEIAKKLNAEVVEEKDGEVIIRFKTPEQAERALKEAEKLGAEVEL [K19A] | 4.18

Variant | folding stability dG [kcal/mol]
EVIELKIKFKTPEQREKLCEIAKKLNAEVVEEKDGEVIIRFKTPEQAERALKEAEKLGAEVEL [K19C] | 4.22
EVIELKIKFKTPEQREKLKEIAKKLNAEVVEEKDGEVIIRFKTPEQAERALKLAEKLGAEVEL [E53L] | 4.61
EVIELKIKFKTPEQREKLKEIAKKLNAEVVEEKDGEVIIRFKTPEQAERALKNAEKLGAEVEL [E53N] | 3.87
EVIELKIKFKTPEQREKLKEIAKKLNAEVVEEKDGEVIIRFKTPEQAERALKGAEKLGAEVEL [E53G] | 4.07
EVIELKIKFKTPEQREKLKEIAKKLNAEVVEEKDGEVIIRFKTPEQAERALKTAEKLGAEVEL [E53T] | 4.03
EVIELKIKFKTPEQREKLKEIAKKLNAEVVEEKDGEVIIRFKTPEIAERALKEAEKLGAEVEL [Q46I] | 4.15
EVIELKIKFKTPEQREKLKEIAKKLNAEVVEEKDGEQIIRFKTPEQAERALKEAEKLGAEVEL [V37Q] | 4.07
ECIELKIKFKTPEQREKLKEIAKKLNAEVVEEKDGEVIIRFKTPEQAERALKEAEKLGAEVEL [V2C] | 4.51
EQIELKIKFKTPEQREKLKEIAKKLNAEVVEEKDGEVIIRFKTPEQAERALKEAEKLGAEVEL [V2Q] | 4.45
EVAELKIKFKTPEQREKLKEIAKKLNAEVVEEKDGEVIIRFKTPEQAERALKEAEKLGAEVEL [I3A] | 4.54
EVVELKIKFKTPEQREKLKEIAKKLNAEVVEEKDGEVIIRFKTPEQAERALKEAEKLGAEVEL [I3V] | 4.58
EVIELKIKFKTPEQRERLKEIAKKLNAEVVEEKDGEVIIRFKTPEQAERALKEAEKLGAEVEL [K17R] | 4.51
EVIELKIKFKTPEQREFLKEIAKKLNAEVVEEKDGEVIIRFKTPEQAERALKEAEKLGAEVEL [K17F] | 4.57
EVIELKIKFSTPEQREKLKEIAKKLNAEVVEEKDGEVIIRFKTPEQAERALKEAEKLGAEVEL [K10S] | 4.16
EVIELKIKFQTPEQREKLKEIAKKLNAEVVEEKDGEVIIRFKTPEQAERALKEAEKLGAEVEL [K10Q] | 4.34
EVIELKIKFKTPEQREKLKEIAKKLNAKVVEEKDGEVIIRFKTPEQAERALKEAEKLGAEVEL [E28K] | 4.17
EVIELKIKFKTPEQREKLKELAKKLNAEVVEEKDGEVIIRFKTPEQAERALKEAEKLGAEVEL [I21L] | 4.39
EVIELKIKFKDPEQREKLKEIAKKLNAEVVEEKDGEVIIRFKTPEQAERALKEAEKLGAEVEL [T11D] | 4.03
EVIELKIKFKEPEQREKLKEIAKKLNAEVVEEKDGEVIIRFKTPEQAERALKEAEKLGAEVEL [T11E] | 4.14
